Test results as given in patent publication US20150203577A1 (Chugai, published 2015).

T1: mouse FcγRII extracellular domain, C-terminal His tag (mouse, UniProt P08101 30-210)
T1 construct: also called mFcγRII; mFcgRII
T1 sequence: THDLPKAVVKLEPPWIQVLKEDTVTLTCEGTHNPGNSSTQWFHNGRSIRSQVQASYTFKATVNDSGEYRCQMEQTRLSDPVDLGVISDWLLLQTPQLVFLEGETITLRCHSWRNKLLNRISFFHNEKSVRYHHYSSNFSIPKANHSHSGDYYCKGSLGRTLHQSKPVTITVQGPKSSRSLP

T2: mouse FcγRIII extracellular domain, C-terminal His tag (mouse, UniProt P08508 31-215)
T2 construct: also called mFcγRIII; mFcgRIII
T2 chain: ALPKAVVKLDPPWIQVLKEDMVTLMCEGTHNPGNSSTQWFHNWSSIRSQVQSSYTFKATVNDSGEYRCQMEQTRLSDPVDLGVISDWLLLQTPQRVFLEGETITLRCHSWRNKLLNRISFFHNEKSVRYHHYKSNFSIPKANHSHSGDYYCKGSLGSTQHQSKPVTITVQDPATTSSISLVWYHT


Experiments:
[1] = molecular target: T1, mouse FcγRII extracellular domain, …; assay: SPR (Biacore T200), antibody captured on Protein L, mFcγR analyte
[2] = molecular target: T2, mouse FcγRIII extracellular domain, …; assay: as above

Binder	Kd [1]	relative mFcγRII-binding activity (mIgG1 = 1) [1]	Kd [2]	relative mFcγRIII-binding activity (mIgG1 = 1) [2]
H237-MB826/MRAL-k0 (antibody, mouse IgG1, kappa, copies: 2 + 2) heavy: QVQLQESGPGLVKPSETLSLTCAVSGHSISHDHAWSWVRQPPGEGLEWIGFISYSGITNYNPSLQGRVTISRDNSKNTLYLQMNSLRAEDTAVYYCARSLARTTAMDYWGEGTLVTVSSAKTTPPSVYPLAPGSAAQTNSMVTLGCLVKGYFPEPVTVTWNSGSLSSGVHTFPAVLQSDLYTLSSSVTVPSSTWPSETVTCNVAHPASSTKVDKKIVPRDCGCKPCICEPNEVELVFIFPPKPKDVLTITLTPKVTCVVVDISKDDPEVQFSWFVDDVEVHTAQTQPREEQFNSTFRSVSELPIMHQDWLNGKEFKCRVNSAGFPAFIEKTISKTKGRPKAPQVYTIPPPKEQMAKDKVSLTCMITDFFPEDITVEWQWNGQPAENYKNTQPIMDTDGSYFVYSKLNVQKSNWEAGNTFTCSVLHEGLHNHHTEKSLSHSPGK light: not shown	11.4 nM	18.5 fold vs H237-mIgG1/MRAL-k0	829 nM	0.3 fold vs H237-mIgG1/MRAL-k0
H237-MB831/MRAL-k0 (antibody, mouse IgG1, kappa, copies: 2 + 2) heavy: QVQLQESGPGLVKPSETLSLTCAVSGHSISHDHAWSWVRQPPGEGLEWIGFISYSGITNYNPSLQGRVTISRDNSKNTLYLQMNSLRAEDTAVYYCARSLARTTAMDYWGEGTLVTVSSAKTTPPSVYPLAPGSAAQTNSMVTLGCLVKGYFPEPVTVTWNSGSLSSGVHTFPAVLQSDLYTLSSSVTVPSSTWPSETVTCNVAHPASSTKVDKKIVPRDCGCKPCICEPNEVELVFIFPPKPKDVLTITLTPKVTCVVVDISKDDPEVQFSWFVDDVEVHTAQTQPREEQFNSTFRSVSELPIMHQDWLNGKEFKCRVNSAAFPAFIERTISKTKGRPKAPQVYTIPPPKEQMAKDKVSLTCMITDFFPEDITVEWQWNGQPAENYKNTQPIMDTDGSYFVYSKLNVQKSNWEAGNTFTCSVLHEGLHNHHTEKSLSHSPGK light: not shown	9.4 nM	22.3 fold vs H237-mIgG1/MRAL-k0	716 nM	0.4 fold vs H237-mIgG1/MRAL-k0
H237-MB827/MRAL-k0 (antibody, mouse IgG1, kappa, copies: 2 + 2) heavy: QVQLQESGPGLVKPSETLSLTCAVSGHSISHDHAWSWVRQPPGEGLEWIGFISYSGITNYNPSLQGRVTISRDNSKNTLYLQMNSLRAEDTAVYYCARSLARTTAMDYWGEGTLVTVSSAKTTPPSVYPLAPGSAAQTNSMVTLGCLVKGYFPEPVTVTWNSGSLSSGVHTFPAVLQSDLYTLSSSVTVPSSTWPSETVTCNVAHPASSTKVDKKIVPRDCGCKPCICEPNEVELVFIFPPKPKDVLTITLTPKVTCVVVDISKDDPEVQFSWFVDDVEVHTAQTQPREEQFNSTFRSVSELPIMHQDWLNGKEFKCRVNSAGFPAYIEKTISKTKGRPKAPQVYTIPPPKEQMAKDKVSLTCMITDFFPEDITVEWQWNGQPAENYKNTQPIMDTDGSYFVYSKLNVQKSNWEAGNTFTCSVLHEGLHNHHTEKSLSHSPGK light: not shown	9.77 nM	21.5 fold vs H237-mIgG1/MRAL-k0	744 nM	0.4 fold vs H237-mIgG1/MRAL-k0
H237-MB835/MRAL-k0 (antibody, mouse IgG1, kappa, copies: 2 + 2) heavy: QVQLQESGPGLVKPSETLSLTCAVSGHSISHDHAWSWVRQPPGEGLEWIGFISYSGITNYNPSLQGRVTISRDNSKNTLYLQMNSLRAEDTAVYYCARSLARTTAMDYWGEGTLVTVSSAKTTPPSVYPLAPGSAAQTNSMVTLGCLVKGYFPEPVTVTWNSGSLSSGVHTFPAVLQSDLYTLSSSVTVPSSTWPSETVTCNVAHPASSTKVDKKIVPRDCGCKPCICEPNEVELVFIFPPKPKDVLTITLTPKVTCVVVDISDDDPEVQFSWFVDDVEVHTAQTQPREEQFNSTFRSVSELPIMHQDWLNGKEFKCRVNSAAFPAPIEKTISKTKGRPKAPQVYTIPPPKEQMAKDKVSLTCMITDFFPEDITVEWQWNGQPAENYKNTQPIMDTDGSYFVYSKLNVQKSNWEAGNTFTCSVLHEGLHNHHTEKSLSHSPGK light: not shown	8 nM	26.3 fold vs H237-mIgG1/MRAL-k0	401 nM	0.7 fold vs H237-mIgG1/MRAL-k0
H237-MB833/MRAL-k0 (antibody, mouse IgG1, kappa, copies: 2 + 2) heavy: QVQLQESGPGLVKPSETLSLTCAVSGHSISHDHAWSWVRQPPGEGLEWIGFISYSGITNYNPSLQGRVTISRDNSKNTLYLQMNSLRAEDTAVYYCARSLARTTAMDYWGEGTLVTVSSAKTTPPSVYPLAPGSAAQTNSMVTLGCLVKGYFPEPVTVTWNSGSLSSGVHTFPAVLQSDLYTLSSSVTVPSSTWPSETVTCNVAHPASSTKVDKKIVPRDCGCKPCICEPNEVELVFIFPPKPKDVLTITLTPKVTCVVVDISKDDPEVQFSWFVDDVEVHTAQTQPREEQFNSTFRSVSELPIMHQDWLNGKEFKCRVNSAAFPAYIERTISKTKGRPKAPQVYTIPPPKEQMAKDKVSLTCMITDFFPEDITVEWQWNGQPAENYKNTQPIMDTDGSYFVYSKLNVQKSNWEAGNTFTCSVLHEGLHNHHTEKSLSHSPGK light: not shown	8.31 nM	25.3 fold vs H237-mIgG1/MRAL-k0	630 nM	0.4 fold vs H237-mIgG1/MRAL-k0
H237-MB834/MRAL-k0 (antibody, mouse IgG1, kappa, copies: 2 + 2) heavy: QVQLQESGPGLVKPSETLSLTCAVSGHSISHDHAWSWVRQPPGEGLEWIGFISYSGITNYNPSLQGRVTISRDNSKNTLYLQMNSLRAEDTAVYYCARSLARTTAMDYWGEGTLVTVSSAKTTPPSVYPLAPGSAAQTNSMVTLGCLVKGYFPEPVTVTWNSGSLSSGVHTFPAVLQSDLYTLSSSVTVPSSTWPSETVTCNVAHPASSTKVDKKIVPRDCGCKPCICEPNEVELVFIFPPKPKDVLTITLTPKVTCVVVDISKDDPEVQFSWFVDDVEVHTAQTQPREEQFNSTFRSVSELPIMHQDWLNGKEFKCRVNSAAFPAPIYRTISKTKGRPKAPQVYTIPPPKEQMAKDKVSLTCMITDFFPEDITVEWQWNGQPAENYKNTQPIMDTDGSYFVYSKLNVQKSNWEAGNTFTCSVLHEGLHNHHTEKSLSHSPGK light: not shown	12.4 nM	17 fold vs H237-mIgG1/MRAL-k0	976 nM	0.3 fold vs H237-mIgG1/MRAL-k0

Now those with a lower Kd [1], led by results:

Kd [1]	relative mFcγRII-binding activity (mIgG1 = 1) [1]	Kd [2]	relative mFcγRIII-binding activity (mIgG1 = 1) [2]	Binder
2.91 nM	72.1 fold vs H237-mIgG1/MRAL-k0	133 nM	2.1 fold vs H237-mIgG1/MRAL-k0	H237-MB846/MRAL-k0 (antibody, mouse IgG1, kappa, copies: 2 + 2) heavy: QVQLQESGPGLVKPSETLSLTCAVSGHSISHDHAWSWVRQPPGEGLEWIGFISYSGITNYNPSLQGRVTISRDNSKNTLYLQMNSLRAEDTAVYYCARSLARTTAMDYWGEGTLVTVSSAKTTPPSVYPLAPGSAAQTNSMVTLGCLVKGYFPEPVTVTWNSGSLSSGVHTFPAVLQSDLYTLSSSVTVPSSTWPSETVTCNVAHPASSTKVDKKIVPRDCGCKPCICEPNEVELVFIFPPKPKDVLTITLTPKVTCVVVDISDDDPEVQFSWFVDDVEVHTAQTQPREEQFNSTFRSVSELPIMHQDWLNGKEFKCRVNSDGFPAPIEKTISKTKGRPKAPQVYTIPPPKEQMAKDKVSLTCMITDFFPEDITVEWQWNGQPAENYKNTQPIMDTDGSYFVYSKLNVQKSNWEAGNTFTCSVLHEGLHNHHTEKSLSHSPGK light: not shown
7.4 nM	28.4 fold vs H237-mIgG1/MRAL-k0	571 nM	0.5 fold vs H237-mIgG1/MRAL-k0	H237-MB828/MRAL-k0 (antibody, mouse IgG1, kappa, copies: 2 + 2) heavy: QVQLQESGPGLVKPSETLSLTCAVSGHSISHDHAWSWVRQPPGEGLEWIGFISYSGITNYNPSLQGRVTISRDNSKNTLYLQMNSLRAEDTAVYYCARSLARTTAMDYWGEGTLVTVSSAKTTPPSVYPLAPGSAAQTNSMVTLGCLVKGYFPEPVTVTWNSGSLSSGVHTFPAVLQSDLYTLSSSVTVPSSTWPSETVTCNVAHPASSTKVDKKIVPRDCGCKPCICEPNEVELVFIFPPKPKDVLTITLTPKVTCVVVDISKDDPEVQFSWFVDDVEVHTAQTQPREEQFNSTFRSVSELPIMHQDWLNGKEFKCRVNSAGFPAPIYKTISKTKGRPKAPQVYTIPPPKEQMAKDKVSLTCMITDFFPEDITVEWQWNGQPAENYKNTQPIMDTDGSYFVYSKLNVQKSNWEAGNTFTCSVLHEGLHNHHTEKSLSHSPGK light: not shown
4.81 nM	43.7 fold vs H237-mIgG1/MRAL-k0	213 nM	1.3 fold vs H237-mIgG1/MRAL-k0	H237-MB847/MRAL-k0 (antibody, mouse IgG1, kappa, copies: 2 + 2) heavy: QVQLQESGPGLVKPSETLSLTCAVSGHSISHDHAWSWVRQPPGEGLEWIGFISYSGITNYNPSLQGRVTISRDNSKNTLYLQMNSLRAEDTAVYYCARSLARTTAMDYWGEGTLVTVSSAKTTPPSVYPLAPGSAAQTNSMVTLGCLVKGYFPEPVTVTWNSGSLSSGVHTFPAVLQSDLYTLSSSVTVPSSTWPSETVTCNVAHPASSTKVDKKIVPRDCGCKPCICEPNEVELVFIFPPKPKDVLTITLTPKVTCVVVDISKDDPEVQFSWFVDDVEVHTAQTQPREELFNSTFRSVSELPIMHQDWLNGKEFKCRVNSDGFPAPIEKTISKTKGRPKAPQVYTIPPPKEQMAKDKVSLTCMITDFFPEDITVEWQWNGQPAENYKNTQPIMDTDGSYFVYSKLNVQKSNWEAGNTFTCSVLHEGLHNHHTEKSLSHSPGK light: not shown
6.22 nM	33.8 fold vs H237-mIgG1/MRAL-k0	445 nM	0.6 fold vs H237-mIgG1/MRAL-k0	H237-MB829/MRAL-k0 (antibody, mouse IgG1, kappa, copies: 2 + 2) heavy: QVQLQESGPGLVKPSETLSLTCAVSGHSISHDHAWSWVRQPPGEGLEWIGFISYSGITNYNPSLQGRVTISRDNSKNTLYLQMNSLRAEDTAVYYCARSLARTTAMDYWGEGTLVTVSSAKTTPPSVYPLAPGSAAQTNSMVTLGCLVKGYFPEPVTVTWNSGSLSSGVHTFPAVLQSDLYTLSSSVTVPSSTWPSETVTCNVAHPASSTKVDKKIVPRDCGCKPCICEPNEVELVFIFPPKPKDVLTITLTPKVTCVVVDISKDDPEVQFSWFVDDVEVHTAQTQPREEQFNSTFRSVSELPIMHQDWLNGKEFKCRVNSAGFPAPIERTISKTKGRPKAPQVYTIPPPKEQMAKDKVSLTCMITDFFPEDITVEWQWNGQPAENYKNTQPIMDTDGSYFVYSKLNVQKSNWEAGNTFTCSVLHEGLHNHHTEKSLSHSPGK light: not shown
